Source: patent publication US20070178531A1 (BIOCHECK, published 2007)

Key:
[1] = target: T1, Mouse Id2: Histidine (mouse, UniProt P41136 1-134, limits assumed); test: ELISA, Ab 0.100 µg/ml
T1 construct: Fusion protein made in E. coli from vector pGW07; also called m-Id2: His; not shown: His tag
T1 sequence (looked up): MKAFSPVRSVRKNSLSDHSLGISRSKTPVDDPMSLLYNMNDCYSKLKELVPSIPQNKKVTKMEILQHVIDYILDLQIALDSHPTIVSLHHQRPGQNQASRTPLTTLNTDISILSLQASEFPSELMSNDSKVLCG

[2] = target: T2, Human Id1: Histidine (human, UniProt P41134 1-155, limits assumed); test: ELISA, Ab 0.025 µg/ml
T2 construct: Fusion protein made in E. coli from vector pGW07; also called h-Id1: his; not shown: His tag
T2 sequence (looked up): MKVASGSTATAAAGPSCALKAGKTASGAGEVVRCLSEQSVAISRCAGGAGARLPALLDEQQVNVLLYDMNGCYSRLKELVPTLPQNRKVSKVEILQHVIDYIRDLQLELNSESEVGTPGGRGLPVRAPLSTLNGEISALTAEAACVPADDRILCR
Description: (§1) The rabbit monoclonal anti-human Id3 (clone #3-3) and the rabbit monoclonal anti-mouse/human Id3 (clones #6-1, 16-1, 17-3, and 42-1) produced in Example 6 were tested reactivity against the following antigens: mouse Id1:His, human Id1:His, mouse Id2:His, human Id2:His, mouse Id3:His, human Id3:His, mouse Id4:His, human Id4:His and GST.
(§2) 1. Microtiter wells (prepared in accordance with Example 6) were coated (0.1 μg/well) with mouse Id1:His, human Id1:His, human Id2:His, human Id3:His, and 1.0 μg/well with GST. [0155] 2. Antibody Diluent: 0.25% (w/v) BSA in 0.015M KPO₄ Buffer, 0.85% (w/v) NaCl, 0.1% (w/v) NaN₃, pH=7.40 [0156] 3. Rabbit monoclonal anti-human Id3 (clone #3-3) prepared in Example 7 was diluted to […] with the antibody diluent. […] 4. Rabbit monoclonal anti-mouse/human Id3 (clones #6-1, 16-1, 17-3, 42-1) prepared in Example 7 was diluted to 0.005, 0.010, 0.025, 0.05, 0.10, 0.25, and 0.50 μg/ml with the antibody diluent. […] 5. Conjugate Diluent: 50% (v/v) which consists of an aqueous solution containing Fetal Bovine Serum in 0.05 M Tris, 1% (v/v) Proclin-300, pH 7.6. [0159] 6. Conjugate: Goat anti-rabbit IgG (H+L)-HRP conjugate. [0160] 7. TMB reagent. […] 8. Stop solution (1 N HCI). Method
(§3) 1. Dispense 100 μL of antibody diluent, diluted rabbit monoclonal human Id3, and mouse/human Id3 hybridoma supernatants into appropriate wells. […] 2. Incubate at room temperature with mechanical shaking at 750 rpm for 90 minutes. [0165] 3. Remove the incubation mixture by flicking plate content into an appropriate waste container followed by rinsing the wells 5 times with distilled water. [0166] 4. Strike the wells sharply onto absorbent paper or paper towels to remove all residual water droplets. [0167] 5. Dispense 100 μL of 1:50,000 Goat Anti-Rabbit IgG-HRP Conjugate Reagent into each well. Gently mix for 5 seconds. [0168] 6. Incubate at room temperature with mechanical shaking at 750 rpm for 90 minutes. [0169] 7. Repeat procedures 3 and 4. [0170] 8. Dispense 100 μL of TMB Reagent into each well. Gently mix for 5 seconds. [0171] 9. Incubate at room temperature with mechanical shaking at 750 rpm for 20 minutes. […] 10.

[3] = target: T3, glutathione S-transferase (GST) (UniProt P08515 1-218 = GST); test: ELISA, Ab 0.050 µg/ml
T3 construct: also called carrier protein GST

[4] = target: T3, glutathione S-transferase (GST); test: ELISA, Ab 0.025 µg/ml
[5] = target: T4, Human Id3: Histidine (human, UniProt Q02535 1-119 at identity 1.00)); test: ELISA, Ab 0.025 µg/ml
T4 construct: Fusion protein made in E. coli from vector pGW07; also called h-Id3: His; Human Id3 (coated wells); not shown: His tag
T4 chain: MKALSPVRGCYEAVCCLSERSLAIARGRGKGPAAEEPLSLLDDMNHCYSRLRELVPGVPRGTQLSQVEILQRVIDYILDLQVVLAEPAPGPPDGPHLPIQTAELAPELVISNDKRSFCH
Description: as §1, §2, §3

[6] = target: T5, human Id3 protein (human, UniProt Q02535 1-119 at identity 1.00)); test: SPR (BIACORE 2000), antibody immobilized on CM5, Id3 as analyte, 1:1 Langmuir
T5 chain: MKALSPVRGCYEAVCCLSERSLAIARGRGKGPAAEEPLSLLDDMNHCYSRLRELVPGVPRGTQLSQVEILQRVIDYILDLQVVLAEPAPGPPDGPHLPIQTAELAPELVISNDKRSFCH
Description: (§4) Antibodies were immobilized on CM5 sensor chips. All SPR (surface plasmon resonance) assays were carried out in a BIACORE 2000 instrument. A mouse monoclonal antibody was used as reference labeled at the 2nd channel (Fc2) of the chip. Rabbit monoclonal anti-human Id3 (BCH-4/#3-3) or Rabbit monoclonal anti-mouse/human Id3 (BCH-4/#6-1, #16-1 and #17-3) was immobilized on the 4th (Fc4) channel. Final conjugation of antibodies on chip surface was 1878 RU for BCH-4#3-3, BCH-4/#6-1, BCH-4/#16-1, or BCH-3/#17-3. Mouse Id-3 and human Id-3 were applied as mobile analytes. The binding assays were carried out in HBS-P buffer (10 mM HEPES, pH 7.4, containing 150 mM sodium chloride, 0.005% surfactant P-20 detergent and 0.12% glycerol). Kinetics were determined with 8 different analyte concentrations ranging from 3.4 nM to 573 nM. For analyses, 125 μl of analyte were injected (Kinject protocol) at 30 μl/min and the dissociation lasted for 240 seconds at the same flow rate. The surface was regenerated by washing with 50 μl solution of 100 mM glycine and 100 mM of HCl, pH 1.81, at 60 μl/min and the extra cleaning protocol was followed. The kinetic analyses of sensograms were based on the Langmuir (1:1) binding model. Both association rate constant and dissociation rate constants for the interaction of mouse Id-3 and human Id-3 with the immobilized antibodies were determined from the analysis of sensograms using the Biaevaluation software, version 3.0. All binding curves were corrected for background and bulk refractive index contribution by subtraction of the reference flow cells. Models were fitted globally across the data sets. All experiments and analyses were duplicated.

[7] = target: T6, mouse Id3 protein (mouse, UniProt P41133 1-119); test: as above
T6 sequence: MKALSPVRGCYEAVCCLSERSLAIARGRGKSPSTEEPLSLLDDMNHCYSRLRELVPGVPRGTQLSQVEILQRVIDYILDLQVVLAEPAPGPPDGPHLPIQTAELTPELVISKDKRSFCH
Description: as §4

T3 sequence (P08515 whole entry): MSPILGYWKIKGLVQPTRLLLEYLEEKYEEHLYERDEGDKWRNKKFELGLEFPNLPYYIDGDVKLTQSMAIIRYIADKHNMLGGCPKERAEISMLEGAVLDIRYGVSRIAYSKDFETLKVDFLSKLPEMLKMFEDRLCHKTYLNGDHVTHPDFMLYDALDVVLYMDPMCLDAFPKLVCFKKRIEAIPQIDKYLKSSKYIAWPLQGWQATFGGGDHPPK

B1: rabbit monoclonal anti-human Id3, clone #BCH-4/#3-3 (antibody, V domains shown)
VH: QSVEESGGRLVTPGTPLTLTCTVSGIDLSSYAMSWVRQAPGKGLEWIGVIFPSNNVYYASWAKGRFTISKTSTTVDLKITSPTTEDTATYFCASMGAFDSWGPGTLVTVSS
VL: QVLTQTPSPVSAAVGGTVTINCQASQSIYNDNDLAWFQQKPGQPPKLLIYDASTLTSGVPSRFKGSGSGTQFTLTISDLDCDDAATYYCAARYSGNIYGFGGGTEVVVK
notes: Rabbit IgG from a rabbit hybridoma; also called h Id3 MoAb 3-3
How did the A450 [1] turn out when B1 was run?
The A450 was 0.05 A450.

And the A450 [2]?
The A450 was 0.049 A450.

What about the A450 [3] of the same binder?
Its A450 is 0.048 A450.

What about the A450 [4] of the same binder?
Its A450 is 0.048 A450.

B2: rabbit monoclonal anti-mouse/human Id3, clone #BCH-4/#16-1 (antibody, V domains shown)
VH: QSVEESGGRLVTPGTPLTLTCTASGFSLSSYYIHWVRQAPGKALEWIGYISDGGTTYYASWAKGRFTISKTSSTTVDLKMTSLTTEDTATYFCARQGFNIWGPGTLVTVSL
VL: AVLTQTPSPVSAAVGGTVTISCQSSQSVYNNNWLSWFQQKSGQPPKLLIYETSKLESGVPSRFKGSGSGTQFTLTIIDVQCDDAATYYCLGGYWTTSDNNIFGGGTEVVVK
notes: Rabbit IgG from a rabbit hybridoma; also called m/h Id3 MoAb 16-1
Which A450 [1] does the source give for B2 here?
The A450 was 0.055 A450.

What about the A450 [5] of the same binder?
The A450 was 0.802 A450.

And the A450 [2]?
Its A450 is 0.046 A450.

What about the Ka [6] of the same binder?
The Ka was 1.89e+11 M⁻¹.

And the Ka [7]?
The Ka was 2.42e+09 M⁻¹.

And the A450 [3]?
The A450 was 0.046 A450.

And the A450 [4]?
The A450 was 0.048 A450.

B3: rabbit monoclonal anti-mouse/human Id3, clone #BCH-4/#6-1 (antibody, V domains shown)
VH: QSVEESGGRLVTPGTPLTLTCTASGFSLSNVYIHWVRQAPGKGLEWIGYISDGDTARYATWAKGRFTISKTSSTTVNLKMTSLTTEDTATYFCARQGFNIWGPGTLVTVSL
VL: AVLTQTPSPVSAAVGGTVSISCQSSQSVWNNNWLSWFQQKPGQPPKLLIYETSKLESGVPSRFKGSGSGTQFTLTISDVQCDDAATYYCLGGYWTTSDNNVFGGGTEVVVK
notes: Rabbit IgG from a rabbit hybridoma; also called m/h Id3 MoAb 6-1
B3 was tested. Which A450 [1] did it give?
Its A450 is 0.055 A450.

What about the A450 [5] of the same binder?
The A450 was 0.974 A450.

What about the A450 [2] of the same binder?
Its A450 is 0.048 A450.

What about the Ka [6] of the same binder?
The Ka was 4.13e+11 M⁻¹.

What about the Ka [7] of the same binder?
The Ka was 5.26e+08 M⁻¹.

What about the A450 [3] of the same binder?
Its A450 is 0.047 A450.

What about the A450 [4] of the same binder?
Its A450 is 0.049 A450.

B4: rabbit monoclonal anti-mouse/human Id3, clone #BCH-4/#17-3 (antibody, V domains shown)
VH: QSVEESGGRLVTPGTPLTLTCTASGFSLSNVYIHWVRQAPGKGLEWIGYISDGDTARYATWAKGRFTISKTSSTTVNLKMTSLTTEDTATYFCARQGFNIWGPGTLVTVSL
VL: AVLTQTPSPVSAAVGGTVSISCQSSQSVWNNNWLSWFQQKPGQPPKLLIYETSKLESGVPSRFKGSGSGTQFTLTISDVQCDDAATYYCLGGYWTTSDNNVFGGGTEVVVK
notes: Rabbit IgG from a rabbit hybridoma; also called m/h Id3 MoAb 17-3; BCH-3/#17-3
B4 was tested. Which A450 [1] did it give?
Its A450 is 0.057 A450.

And the A450 [5]?
The A450 was 1.27 A450.

What about the A450 [2] of the same binder?
Its A450 is 0.047 A450.

What about the Ka [6] of the same binder?
Its Ka is 7.35e+10 M⁻¹.

What about the Ka [7] of the same binder?
Its Ka is 3.32e+11 M⁻¹.

And the A450 [3]?
Its A450 is 0.046 A450.

What about the A450 [4] of the same binder?
Its A450 is 0.045 A450.

B5: rabbit monoclonal anti-mouse/human Id3, clone #BCH-4/#42-1 (antibody, V domains shown)
VH: QSVEESGGRLVTPGTPLTLTCTASGFSLSSYYIHWVRQAPGKALEWIGYISDGGTTYYASWAKGRFTISKTSSTTVDLKMTSLTTEDTATYFCARQGFNIWGPGTLVTVSL
VL: AVLTQTPSPVSAAVGGTVTISCQSSQSVYNNNWLSWFQQKSGQPPKLLIYETSKLESGVPSRFKGSGSGTQFTLTIIDVQCDDAATYYCLGGYWSTSDNNIFGGGTEVVVK
notes: Rabbit IgG from a rabbit hybridoma; also called m/h Id3 MoAb 42-1
What does the source list for B5?
A450 [1]: 0.058 A450; A450 [5]: 1.44 A450; A450 [2]: 0.043 A450; A450 [3]: 0.049 A450; A450 [4]: 0.045 A450
